Results on one molecule are retold here after patent US20220152105A1 (published 2022).

For the test, the target named is T1, gp100 peptide on HLA-C*06:02 (human).
T1 peptide: HRRGSRSYV
As to the kind of experiment: multimer staining. How it is done:
T cells (1×10⁵) were incubated for 30 minutes at 37° C. in the presence of 50 nM dasatinib (LC laboratories). The cells were then washed and incubated with 5-10 μg/ml of multimer for 30 minutes at room temperature, and R-phycoerythrin-conjugated AffiniPure Fab fragment goat anti-mouse IgG1 (Jackson ImmunoResearch Laboratories) was added for 15 minutes at 4° C. Next, the cells were washed three times and costained with an anti-CD8 mAb for 15 minutes at 4° C. Dead cells were finally discriminated using the LIVE/DEAD Fixable Dead Cell Stain kit.

B1: C*06:02/gp100190-198 TCR (TCR, V domains shown)
Valpha: KNQVEQSPQSLIILEGKNCTLQCNYTVSPFSNLRWYKQDTGRGPVSLTIMTFSENTKSNGRYTATLDADTKQSSLHITASQLSDSASYICVVRGMDSSYKLIFGSGTRLLVRP
Vbeta: DAMVIQNPRYQVTQFGKPVTLSCSQTLNHNVMYWYQQKSSQAPKLLFHYYDKDFNNEADTPDNFQSRRPNTSFCFLDIRSPGLGDAAMYLCATSSEDSSNQPQHFGDGTRLSIL
Turning to B1, the binding result was “recognises”.
